B1: Human Eps8 (natural protein, UniProt Q12929 1-822, looked up)
chain: MNGHISNHPSSFGMYPSQMNGYGSSPTFSQTDREHGSKTSAKALYEQRKNYARDSVSSVSDISQYRVEHLTTFVLDRKDAMITVDDGIRKLKLLDAKGKVWTQDMILQVDDRAVSLIDLESKNELENFPLNTIQHCQAVMHSCSYDSVLALVCKEPTQNKPDLHLFQCDEVKANLISEDIESAISDSKGGKQKRRPDALRMISNADPSIPPPPRAPAPAPPGTVTQVDVRSRVAAWSAWAADQGDFEKPRQYHEQEETPEMMAARIDRDVQILNHILDDIEFFITKLQKAAEAFSELSKRKKNKKGKRKGPGEGVLTLRAKPPPPDEFLDCFQKFKHGFNLLAKLKSHIQNPSAADLVHFLFTPLNMVVQATGGPELASSVLSPLLNKDTIDFLNYTVNGDERQLWMSLGGTWMKARAEWPKEQFIPPYVPRFRNGWEPPMLNFMGATMEQDLYQLAESVANVAEHQRKQEIKRLSTEHSSVSEYHPADGYAFSSNIYTRGSHLDQGEAAVAFKPTSNRHIDRNYEPLKTQPKKYAKSKYDFVARNNSELSVLKDDILEILDDRKQWWKVRNASGDSGFVPNNILDIVRPPESGLGRADPPYTHTIQKQRMEYGPRPADTPPAPSPPPTPAPVPVPLPPSTPAPVPVSKVPANITRQNSSSSDSGGSIVRDSQRHKQLPVDRRKSQMEEVQDELIHRLTIGRSAAQKKFHVPRQNVPVINITYDSTPEDVKTWLQSKGFNPVTVNSLGVLNGAQLFSLNKDELRTVCPEGARVYSQITVQKAALEDSSGSSELQEIMRRRQEKISAAASDSGVESFDEGSSH
B2: Full-length human IRSp53 (natural protein, UniProt Q9UQB8-4 1-521, looked up)
chain: MSLSRSEEMHRLTENVYKTIMEQFNPSLRNFIAMGKNYEKALAGVTYAAKGYFDALVKMGELASESQGSKELGDVLFQMAEVHRQIQNQLEEMLKSFHNELLTQLEQKVELDSRYLSAALKKYQTEQRSKGDALDKCQAELKKLRKKSQGSKNPQKYSDKELQYIDAISNKQGELENYVSDGYKTALTEERRRFCFLVEKQCAVAKNSAAYHSKGKELLAQKLPLWQQACADPSKIPERAVQLMQQVASNGATLPSALSASKSNLVISDPIPGAKPLPVPPELAPFVGRMSAQESTPIMNGVTGPDGEDYSPWADRKAAQPKSLSPPQSQSKLSDSYSNTLPVRKSVTPKNSYATTENKTLPRSSSMAAGLERNGRMRVKAIFSHAAGDNSTLLSFKEGDLITLLVPEARDGWHYGESEKTKMRGWFPFSYTRVLDSDGSDRLHMSLQQGKSSSTGNLLDKDDLAIPPPDYGAASRAFPAQTASGFKQRPYSVAVPAFSQGLDDYGARSMSSGSGTLVSTV
B3: CRIB–PR domain of IRSp53 (residues 260–291), synthetic peptide (peptide, UniProt Q9UQB8-4 260-291, looked up)
peptide: Ac-ASKSNLVISDPIPGAKPLPVPPELAPFVGRMS-NH2
B4: Isolated SH3 domain of IRSp53 (domain or fragment)
chain: NGRMRVKAIFSHAAGDNSTLLSFKEGDLITLLVPEARDGWHYGESEKTKMRGWFPFSYTRVLDS
B5: Human Cdc42 residues 1–178, constitutively active mutant G12V (domain or fragment)
chain: not shown

Data set [1] concerns the target B2. In words: SEC + other: glycerol gradient sedimentation.
Data set [2] concerns the molecule itself. In words: SEC + other: glycerol gradient sedimentation.
For data set [3], the target named is B5. In words: ITC. Background: Isothermal titration calorimetry measures the heat released or taken up as one component is titrated into another.
Data set [4] concerns the target B3. In words: ITC.
Data set [5] has as its target B2. In words: ITC.
Data set [6] deals with B3. As to the kind of experiment: ITC.

On to B1, for which, in the data set with Full-length human IRSp53 [1], the “stoichiometry N” value was 1 Eps8 per IRSp53 (2:2).

Turning to B2, the “stoichiometry N” value in data set [2] worked out at 2.

Regarding B3, in data set [3], the equilibrium dissociation constant (Kd) turned out to be 5 µM.

In data set [4], B4 came in with an equilibrium dissociation constant (Kd) of 114 µM.

As to B5, in the data set with Full-length human IRSp53 [5], the Kd worked out at 16.1 µM, the “fold reduction of the enthalpy of binding against CRIB–PR” value turned out to be 3 fold and the “stoichiometry N” value came to 1 Cdc42 per CRIB–PR. Besides, the “stoichiometry N” value in data set [6] worked out at 1 Cdc42 per CRIB–PR.

Broadly, the stoichiometry N is a count of units in the complex or per binding partner. By Kd is commonly meant a measure of binding affinity in units of concentration. A lower Kd goes with tighter binding.

The values are drawn from PMC4091835 (Nature structural & molecular biology, 2014).
